{
  "source": "paper PMC12431856",
  "about": "“Synthetic ZFTA fusions pinpoint disordered protein domain acquisition as a mechanism of brain tumorigenesis”",
  "molecular_target": "ZFTA ZF1 (UniProt C9JLR9 81-172)",
  "sequence (C9JLR9 81-172)": "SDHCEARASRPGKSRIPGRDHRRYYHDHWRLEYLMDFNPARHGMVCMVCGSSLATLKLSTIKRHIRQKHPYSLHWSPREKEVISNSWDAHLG",
  "test": "fluorescence polarization; FP: 25 mM citrate pH 5.6, 150 mM NaCl, 0.5 mM TCEP, 100 nM DNA, 15 nM-7.5 uM protein, 20 min, room temperature; NMR: same buffer with 5% D2O, 25 C",
  "conditions": "protein: recombinant; tags: none (His6-MBP removed by TEV); label: 5'-Cy5 on top strand; blunt",
  "data": [
    {"binder": "Cy5 PLAGL motif DNA (dsDNA) DNA 1: GATCCATGGCCCCATGGATG DNA 2: CATCCATGGGGCCATGGATC", "values": [
      {"measurement": "binding result", "value": "binds"}
    ]}
  ]
}
